Our source for the self-aminoacylation values is the supplement of paper PMC9233669.

Fewer inactive variants are shown than the library holds.

One series relates to biotinyl-Leu-oxazolone. Kind of series: self-aminoacylation, catalytic enhancement (BLO) (fold over background); higher = more active; k-Seq, kA / k0A0; sequences stand for … in GGGAAUGGAUCCACAUCUACGAAUUC…UUCACUGCAGACUUGACGAAGCUG
The gist of the method: (§1)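 Each biotinyl-aminoacyl-oxazolone, at 2–1250 μM, was incubated with mutagenized RNA pools (0.43 μM) carrying a 21-nt variable region. The 50 μL reactions contained HEPES/NaCl/KCl/MgCl2/CaCl2 buffer with 5% acetonitrile at pH 6.9–7.0 and ran for 90 minutes at room temperature. After streptavidin capture, RNA was measured by qPCR in triplicate and by Illumina sequencing, and catalytic enhancement was calculated as median kA over the uncatalyzed rate from a pseudo-first-order fit of per-sequence fraction reacted.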

The test system of the next series is biotinyl-Phe-oxazolone. Kind of series: self-aminoacylation, catalytic enhancement (BFO) (fold over background); higher = more active; k-Seq, kA / k0A0; sequences stand for … in GGGAAUGGAUCCACAUCUACGAAUUC…UUCACUGCAGACUUGACGAAGCUG
The gist of the method:
as §1

In another series the test system is biotinyl-Ile-oxazolone. As to the kind of experiment: self-aminoacylation, catalytic enhancement (BIO) (fold over background); higher = more active; k-Seq, kA / k0A0; sequences stand for … in GGGAAUGGAUCCACAUCUACGAAUUC…UUCACUGCAGACUUGACGAAGCUG
The method, boiled down: as §1

Another series has as its system biotinyl-Val-oxazolone. As to the kind of experiment: self-aminoacylation, catalytic enhancement (BVO) (fold over background); higher = more active; k-Seq, kA / k0A0; sequences stand for … in GGGAAUGGAUCCACAUCUACGAAUUC…UUCACUGCAGACUUGACGAAGCUG
The gist of the method:
as §1

The next series concerns biotinyl-Trp-oxazolone. Kind of series: self-aminoacylation, catalytic enhancement (BWO) (fold over background); higher = more active; k-Seq, kA / k0A0; sequences stand for … in GGGAAUGGAUCCACAUCUACGAAUUC…UUCACUGCAGACUUGACGAAGCUG
The gist of the method:
as §1

The next series has as its system biotinyl-Met-oxazolone. As to the kind of experiment: self-aminoacylation, catalytic enhancement (BMO) (fold over background); higher = more active; k-Seq, kA / k0A0; sequences stand for … in GGGAAUGGAUCCACAUCUACGAAUUC…UUCACUGCAGACUUGACGAAGCUG
The method, boiled down: as §1

Turning to “AUUCACCCAGGCCAUCGGGUG [Fam2.2 aminoacylation ribozyme variant]”, the self-aminoacylation with biotinyl-Leu-oxazolone worked out at 6.14; in the series on biotinyl-Phe-oxazolone, 34.1; in the series with biotinyl-Ile-oxazolone, 3.35; with biotinyl-Val-oxazolone, 3.7; with biotinyl-Trp-oxazolone, 5.24; with biotinyl-Met-oxazolone, 3.79.
Turning to “AUUCCCCUAGGCCAUCGGGUG [Fam2.2 aminoacylation ribozyme variant]”, the self-aminoacylation in the series on biotinyl-Leu-oxazolone turned out to be 19.3; with biotinyl-Phe-oxazolone, 119; in the series on biotinyl-Ile-oxazolone it was 8.31; with biotinyl-Val-oxazolone it was 9.59; in the series on biotinyl-Trp-oxazolone, 12.5; in the series on biotinyl-Met-oxazolone it was 13.6.
Take “AGUCACCUCGGUCAUCGGGUG [Fam2.2 aminoacylation ribozyme variant]”: the self-aminoacylation in the series with biotinyl-Leu-oxazolone turned out to be 6.23; in the series on biotinyl-Phe-oxazolone, 44.4; with biotinyl-Ile-oxazolone it was 4.47; with biotinyl-Val-oxazolone it was 4.18; with biotinyl-Trp-oxazolone, 7.18; in the series with biotinyl-Met-oxazolone it was 6.27.
For the sequence “AAGUUAGCUAAUAAUCGCAAG [Fam3.1 aminoacylation ribozyme variant]”, the self-aminoacylation is 1.38 in the series with biotinyl-Leu-oxazolone; 2 with biotinyl-Phe-oxazolone; 1.77 in the series on biotinyl-Ile-oxazolone; 1.26 in the series with biotinyl-Val-oxazolone; 1.12 in the series on biotinyl-Trp-oxazolone; 1.3 in the series on biotinyl-Met-oxazolone.
Turning to “AUACUUCAAACAAUCGGUGUG [Fam1A.1 aminoacylation ribozyme variant]”, the self-aminoacylation with biotinyl-Leu-oxazolone worked out at 1.25; in the series with biotinyl-Phe-oxazolone, 3.81; with biotinyl-Ile-oxazolone it was 1.05; in the series on biotinyl-Val-oxazolone it was 0.94; with biotinyl-Trp-oxazolone, 2.68; with biotinyl-Met-oxazolone, 1.22.
In the case of “CUUCUUCAAACAGUCGGUCUG [Fam1A.1 aminoacylation ribozyme variant]”, the self-aminoacylation with biotinyl-Leu-oxazolone was found to be 0.803; in the series on biotinyl-Phe-oxazolone it was 0.711; in the series on biotinyl-Ile-oxazolone, 0.697; with biotinyl-Val-oxazolone, 0.771; in the series with biotinyl-Trp-oxazolone, 0.848; with biotinyl-Met-oxazolone it was 0.821.
Turning to “CCUCACUUCAAGCAAUCUGUC [Fam1B.1 aminoacylation ribozyme variant]”, the self-aminoacylation with biotinyl-Leu-oxazolone was found to be 0.313; with biotinyl-Phe-oxazolone, 1.03; in the series with biotinyl-Ile-oxazolone, 0.458; in the series with biotinyl-Val-oxazolone, 0.515; with biotinyl-Trp-oxazolone, 0.563; with biotinyl-Met-oxazolone, 0.343.
Regarding “AUUACCCUGGUCUUCGAGUGG [Fam2.1 aminoacylation ribozyme variant]”, the self-aminoacylation with biotinyl-Leu-oxazolone amounted to 1.69; in the series with biotinyl-Phe-oxazolone it was 4.91; with biotinyl-Ile-oxazolone it was 0.992; in the series on biotinyl-Val-oxazolone, 1.07; in the series with biotinyl-Trp-oxazolone, 0.855; with biotinyl-Met-oxazolone it was 1.34.
In the case of “CCACCCUUCAAGCAAUCGUUC [Fam1B.1 aminoacylation ribozyme variant]”, the self-aminoacylation in the series with biotinyl-Leu-oxazolone is 0.611; in the series on biotinyl-Phe-oxazolone, 0.85; in the series with biotinyl-Ile-oxazolone, 0.888; with biotinyl-Val-oxazolone it was 0.89; in the series with biotinyl-Trp-oxazolone, 0.742; in the series with biotinyl-Met-oxazolone, 0.584.
Regarding “AUGUACCUAGGUCAUCGGGUG [Fam2.2 aminoacylation ribozyme variant]”, the self-aminoacylation in the series with biotinyl-Leu-oxazolone amounted to 5.37; with biotinyl-Phe-oxazolone, 34; in the series with biotinyl-Ile-oxazolone, 3.62; in the series with biotinyl-Val-oxazolone it was 3.08; with biotinyl-Trp-oxazolone, 5.8; in the series on biotinyl-Met-oxazolone, 5.49.
Regarding “AUUAUCCUGGCCAUCGAGUGA [Fam2.1 aminoacylation ribozyme variant]”, the self-aminoacylation is 2.98 in the series with biotinyl-Leu-oxazolone; 13.8 in the series on biotinyl-Phe-oxazolone; 1.92 in the series with biotinyl-Ile-oxazolone; 1.69 with biotinyl-Val-oxazolone; 2.77 with biotinyl-Trp-oxazolone; 2.99 in the series with biotinyl-Met-oxazolone.
On to “AUUACUCGGGUCAUCGAGUGA [Fam2.1 aminoacylation ribozyme variant]”, for which the self-aminoacylation in the series with biotinyl-Leu-oxazolone stood at 8.09; in the series on biotinyl-Phe-oxazolone, 28.6; in the series with biotinyl-Ile-oxazolone it was 3.66; in the series with biotinyl-Val-oxazolone, 3.33; with biotinyl-Trp-oxazolone, 6.64; in the series on biotinyl-Met-oxazolone, 6.51.
Regarding “CUAAUUCAAACAAUCGGUUUG [Fam1A.1 aminoacylation ribozyme variant]”, the self-aminoacylation was 0.696 in the series on biotinyl-Leu-oxazolone; 3.96 with biotinyl-Phe-oxazolone; 0.802 with biotinyl-Ile-oxazolone; 0.724 with biotinyl-Val-oxazolone; 2.78 in the series on biotinyl-Trp-oxazolone; 0.701 in the series on biotinyl-Met-oxazolone.
“CCCCACUUCAAGCAAUCCGUC [Fam1B.1 aminoacylation ribozyme variant]”: the self-aminoacylation is 1.02 with biotinyl-Leu-oxazolone; 3.48 with biotinyl-Phe-oxazolone; 1.62 in the series on biotinyl-Ile-oxazolone; 1.6 in the series with biotinyl-Val-oxazolone; 2.64 in the series on biotinyl-Trp-oxazolone; 1 with biotinyl-Met-oxazolone.
“CCACACUUCAAGAAAUCGCUC [Fam1B.1 aminoacylation ribozyme variant]”: the self-aminoacylation in the series on biotinyl-Leu-oxazolone stood at 0.886; with biotinyl-Phe-oxazolone it was 0.492; with biotinyl-Ile-oxazolone, 1.13; in the series on biotinyl-Val-oxazolone, 1.05; with biotinyl-Trp-oxazolone it was 0.881; in the series on biotinyl-Met-oxazolone it was 1.14.
“AUUCACUUUGGUCAUCGGGUG [Fam2.2 aminoacylation ribozyme variant]”: the self-aminoacylation in the series with biotinyl-Leu-oxazolone was 9.51; in the series with biotinyl-Phe-oxazolone, 65.4; in the series on biotinyl-Ile-oxazolone, 4.75; with biotinyl-Val-oxazolone, 4.71; in the series with biotinyl-Trp-oxazolone, 7.2; in the series on biotinyl-Met-oxazolone it was 8.05.
For “CUUACCCUGGUCAUAGAGUGA [Fam2.1 aminoacylation ribozyme variant]”, the self-aminoacylation was 5.85 in the series on biotinyl-Leu-oxazolone; 24.2 in the series with biotinyl-Phe-oxazolone; 2.86 in the series with biotinyl-Ile-oxazolone; 2.83 in the series with biotinyl-Val-oxazolone; 7.46 in the series with biotinyl-Trp-oxazolone; 6.37 with biotinyl-Met-oxazolone.
On to “UUACUUCAAACAAUCGCUCUG [Fam1A.1 aminoacylation ribozyme variant]”, for which the self-aminoacylation in the series with biotinyl-Leu-oxazolone turned out to be 1.16; in the series with biotinyl-Phe-oxazolone, 2.29; in the series on biotinyl-Ile-oxazolone, 1.21; with biotinyl-Val-oxazolone it was 1.12; in the series with biotinyl-Trp-oxazolone, 1.51; in the series with biotinyl-Met-oxazolone, 1.07.
As to “AAAUUUGGUAAUAGUCGCAAG [Fam3.1 aminoacylation ribozyme variant]”, the self-aminoacylation stood at 1.86 with biotinyl-Leu-oxazolone; 2.12 in the series with biotinyl-Phe-oxazolone; 2.2 with biotinyl-Ile-oxazolone; 1.74 with biotinyl-Val-oxazolone; 2.27 with biotinyl-Trp-oxazolone; 1.88 in the series with biotinyl-Met-oxazolone.
For the sequence “GUUCAUCUAGGUCAUCGGGUG [Fam2.2 aminoacylation ribozyme variant]”, the self-aminoacylation in the series on biotinyl-Leu-oxazolone stood at 7.61; in the series with biotinyl-Phe-oxazolone, 35.3; in the series on biotinyl-Ile-oxazolone, 4.19; with biotinyl-Val-oxazolone, 3.72; with biotinyl-Trp-oxazolone, 7.23; in the series with biotinyl-Met-oxazolone, 5.79.
With “UAGUUUUCUAAUAGUCGCAAG [Fam3.1 aminoacylation ribozyme variant]”, the self-aminoacylation in the series on biotinyl-Leu-oxazolone was 1.3; in the series with biotinyl-Phe-oxazolone it was 1.6; in the series on biotinyl-Ile-oxazolone, 1.52; in the series on biotinyl-Val-oxazolone, 1.23; with biotinyl-Trp-oxazolone, 1.59; in the series with biotinyl-Met-oxazolone, 1.25.
Consider “AUUCACCUAGGUCAACGGUUG [Fam2.2 aminoacylation ribozyme variant]”, for which the self-aminoacylation in the series with biotinyl-Leu-oxazolone was determined as 0.71; in the series on biotinyl-Phe-oxazolone it was 1.03; with biotinyl-Ile-oxazolone, 0.852; with biotinyl-Val-oxazolone, 0.808; in the series with biotinyl-Trp-oxazolone, 0.94; with biotinyl-Met-oxazolone, 0.808.
As to “CUGCUUCAAGCAAUCGGUCUG [Fam1A.1 aminoacylation ribozyme variant]”, the self-aminoacylation was found to be 2.96 with biotinyl-Leu-oxazolone; 132 with biotinyl-Phe-oxazolone; 1.29 in the series on biotinyl-Ile-oxazolone; 1.49 with biotinyl-Val-oxazolone; 42.8 in the series on biotinyl-Trp-oxazolone; 2.13 in the series with biotinyl-Met-oxazolone.
Consider “CCACACCUCAAGCAAUCGGUC [Fam1B.1 aminoacylation ribozyme variant]”, for which the self-aminoacylation in the series on biotinyl-Leu-oxazolone was 0.908; in the series on biotinyl-Phe-oxazolone it was 2.37; in the series on biotinyl-Ile-oxazolone, 1.03; with biotinyl-Val-oxazolone, 1.15; in the series on biotinyl-Trp-oxazolone, 1.56; with biotinyl-Met-oxazolone, 0.862.
For the sequence “AUUAACCUGGGCAUCGAGUGA [Fam2.1 aminoacylation ribozyme variant]”, the self-aminoacylation in the series with biotinyl-Leu-oxazolone amounted to 5.72; in the series with biotinyl-Phe-oxazolone it was 20.5; in the series on biotinyl-Ile-oxazolone, 2.63; in the series with biotinyl-Val-oxazolone, 2.6; in the series on biotinyl-Trp-oxazolone, 5.8; in the series on biotinyl-Met-oxazolone it was 4.66.
